Positions count from the first letter of the chain named. Names may count otherwise. Where two headings read alike, the source gives them in different places.
Assays:
[1] = molecular target: T1, recombinant cynomolgus monkey OX40 (Acro Biosystems, cat. no. OXO-C5220) (cynomolgus monkey, UniProt P43489 29-216 (human entry), limits assumed); assay: BLI, Ab on AHC sensor, OX40 analyte
T1 construct: bought soluble protein; also called Cyno OX40
T1 chain: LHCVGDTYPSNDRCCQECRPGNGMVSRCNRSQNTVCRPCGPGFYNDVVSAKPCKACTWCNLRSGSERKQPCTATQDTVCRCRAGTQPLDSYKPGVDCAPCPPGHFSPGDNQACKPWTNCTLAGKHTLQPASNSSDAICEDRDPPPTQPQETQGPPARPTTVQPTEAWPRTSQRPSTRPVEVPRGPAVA
Experimental: (§1) Experiments were carried out while shaking at 1,000 RPM at 30° C. […] Next, AHC sensors were loaded with antibody (1 μg/mL in Sample Diluent) for 600 s. After a baseline measurement in sample diluent (100 s), the association (200 s) and dissociation (1,000 s) of human OX40 (Acro Biosystems, cat. no. OXO-H5224), and cynomolgus monkey OX40 (Acro Biosystems, cat. no. OXO-C5220) was determined using a concentration range of 0.78 to 800 nM with 2-fold dilution steps.
(§2) Data were acquired using Data Acquisition Software v12.0 (Sartorius) and analyzed with Data Analysis Software v12.0 (Sartorius). Data traces were corrected per antibody by subtraction of the reference sensor. The Y-axis was aligned to the last 10 s of the baseline and Interstep Correction alignment to dissociation as well as Savitzky-Golay filtering were applied. Data traces with a response<0.05 nm were excluded from analysis. […] The data was fitted with the 1:1 model using a window of interest for the association of 200 s and dissociation times set at 50 s, 200 s and 1,000 s. The dissociation time was chosen based upon R² value, visual inspection of the curve and at least 5% signal decay during the dissociation step.

[2] = molecular target: T2, His-tagged human recombinant FcγRIIb (human, UniProt P31994 43-217); assay: SPR, His-tagged FcγRIIb captured on an anti-His chip, antibody injected
T2 construct: bought; also called FcγRII2b [sic]; not shown: His-tag
T2 sequence (looked up): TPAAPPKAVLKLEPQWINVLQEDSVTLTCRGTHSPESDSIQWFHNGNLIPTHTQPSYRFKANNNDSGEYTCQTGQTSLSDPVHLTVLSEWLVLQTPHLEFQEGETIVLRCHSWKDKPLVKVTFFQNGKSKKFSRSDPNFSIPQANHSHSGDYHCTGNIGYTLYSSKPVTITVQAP
Experimental: (§3) Biacore Series S Sensor Chips CM5 (Cytiva, cat. no. 29104988) were covalently coated with anti-His antibody using amine-coupling and His capture kits (Cytiva, cat. no. BR100050 and cat. no. 29234602) according to the manufacturer's instructions. […] After three start-up cycles of HBS-EP+ buffer, antibody samples were injected for 12 cycles per sample to generate binding curves using antibody concentration ranges of 0 to 3,000 nM for FcγRIa and 0 to 10,000 nM for the other FcγRs. […] Dissociation from the anti-His-coated surface was performed by regeneration of the surface using 10 mM Glycine-HCl pH 1.5 (Cytiva, cat. no. BR100354).

[3] = molecular target: T3, His-tagged human recombinant FcγRIIIa 176-Phe (human, UniProt P08637 17-208); assay: SPR, His-tagged FcγRIIIa[F] captured on an anti-His chip, antibody injected
T3 construct: bought; also called FcγRIIIa[F]; not shown: His-tag
Experimental: as §3

[4] = molecular target: T4, His-tagged human recombinant FcγRIIa 167-His (human, UniProt P12318 34-218); assay: SPR, His-tagged FcγRIIa[H] captured on an anti-His chip, antibody injected
T4 construct: bought; also called FcγRIIa[H]; not shown: His-tag
T4 sequence (looked up): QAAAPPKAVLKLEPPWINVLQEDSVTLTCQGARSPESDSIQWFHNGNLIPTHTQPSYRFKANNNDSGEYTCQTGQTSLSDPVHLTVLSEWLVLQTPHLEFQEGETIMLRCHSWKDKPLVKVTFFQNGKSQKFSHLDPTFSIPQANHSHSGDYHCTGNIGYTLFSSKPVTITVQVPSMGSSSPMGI
Experimental: as §3

[5] = molecular target: T5, His-tagged human recombinant FcγRIa (human, UniProt P12314 16-288); assay: SPR, His-tagged FcγRIa captured on an anti-His chip, antibody injected
T5 construct: bought; also called FcγRIa (SPR); not shown: His-tag
Experimental: as §3

[6] = molecular target: T5, His-tagged human recombinant FcγRIa; assay: as above; remark: listed apart in the source
Experimental: as §3

[7] = molecular target: T6, His-tagged human recombinant FcγRIIIa 176-Val (human, UniProt P08637 17-208); assay: SPR, His-tagged FcγRIIIa[V] captured on an anti-His chip, antibody injected
T6 construct: bought; also called FcγRIIIa[V]; not shown: His-tag
Experimental: as §3

[8] = molecular target: T7, His-tagged human recombinant FcγRIIa 167-Arg (human, UniProt P12318 34-218); assay: SPR, His-tagged FcγRIIa[R] captured on an anti-His chip, antibody injected
T7 construct: bought; also called FcγRIIa[R]; not shown: His-tag
T7 sequence (looked up): T4 sequence (looked up) with H134R
Experimental: as §3

[9] = molecular target: T8, human FcγRIa, cell surface-expressed (human, UniProt P12314 16-374); assay: flow cytometry, ExpiCHO-S cells transfected with human FcγRIa
T8 construct: whole, on cells; also called CD64; FcγR1a on ExpiCHO-S cells

[10] = molecular target: T1, recombinant cynomolgus monkey OX40 …; assay: BLI, Ab on AHC sensor, OX40 analyte; * binding observed, less reliable fit
Experimental: as §1, §2

T5 sequence (P12314 16-288 limits assumed): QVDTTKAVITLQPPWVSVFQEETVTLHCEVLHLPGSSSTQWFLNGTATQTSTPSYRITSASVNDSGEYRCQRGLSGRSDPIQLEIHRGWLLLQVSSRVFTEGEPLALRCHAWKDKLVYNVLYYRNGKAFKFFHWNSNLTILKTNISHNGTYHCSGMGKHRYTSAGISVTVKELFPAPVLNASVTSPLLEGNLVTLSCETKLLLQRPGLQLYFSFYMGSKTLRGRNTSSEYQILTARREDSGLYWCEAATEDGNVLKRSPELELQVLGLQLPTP
T8 sequence (P12314 16-374): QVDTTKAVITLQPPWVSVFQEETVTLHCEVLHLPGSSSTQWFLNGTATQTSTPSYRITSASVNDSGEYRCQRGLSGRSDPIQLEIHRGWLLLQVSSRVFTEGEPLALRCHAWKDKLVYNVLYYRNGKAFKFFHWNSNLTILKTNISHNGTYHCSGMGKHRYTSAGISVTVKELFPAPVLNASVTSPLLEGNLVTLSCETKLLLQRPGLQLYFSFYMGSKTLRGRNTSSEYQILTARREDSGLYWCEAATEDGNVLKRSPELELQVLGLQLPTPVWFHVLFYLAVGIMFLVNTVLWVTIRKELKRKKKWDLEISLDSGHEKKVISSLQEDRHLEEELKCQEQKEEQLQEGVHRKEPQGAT
T6 sequence (P08637 17-208 F176V limits assumed): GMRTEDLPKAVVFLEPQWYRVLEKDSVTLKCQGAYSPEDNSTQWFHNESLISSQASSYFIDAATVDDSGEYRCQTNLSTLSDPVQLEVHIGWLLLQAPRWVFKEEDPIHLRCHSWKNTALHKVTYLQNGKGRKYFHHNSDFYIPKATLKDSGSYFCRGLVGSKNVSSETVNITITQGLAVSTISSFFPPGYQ
T3 sequence (P08637 17-208 limits assumed): as the sequence (P08637 17-208 F176V limits assumed) above, with V160F counted along it

B1: IgG1-CD134-007 (antibody)
heavy: not shown
light: AQVLTQTPSPVSAAVGGTVTISCQSSESVWNNNWLAWYQQKPGQPPNLLIYEASTLASGVSSRFKGSGSGTQFTLTVSEVQSDDAATYYCQGGYYDSSPIWTFGGGTEVVVKRTVAAPSVFIFPPSDEQLKSGTASVVCLLNNFYPREAKVQWKVDNALQSGNSQESVTEQDSKDSTYSLSSTLTLSKADYEKHKVYACEVTHQGLSSPVTKSFNRGEC
notes: rabbit-human chimeric IgG1
Question: What does the source list for B1?
Answer: Kd [1]: 7.1 nM; koff [1]: 0.0018 s⁻¹; kon [1]: 260000 M⁻¹ s⁻¹

B2: IgG1-b12 (antibody)
heavy: not shown
VL: EIVLTQSPGTLSLSPGERATFSCRSSHSIRSRRVAWYQHKPGQAPRLVIHGVSNRASGISDRFSGSGSGTDFTLTITRVEPEDFALYYCQVYGASSYTFGQGTKLERK
notes: wild-type Fc domain; also called anti-HIV gp120 antibody IgG1-b12
Question: What does the source list for B2?
Answer: binding result [2]: binds; binding result [3]: binds; binding result [4]: binds; EC50 (read off the curve) [5]: ~20 nM; EC50 (read off the curve) [6]: ~30 nM; binding result [7]: binds; binding result [8]: binds

B3: IgG1-CD134-003-HC6LC2 (antibody)
heavy: not shown
light: AAVLTQSPSSLSASVGDRVTITCQSSQIVVNNNFLSWYQQKPGKAPKLLIYDASNLASGVPDRFSGSGSGTDFTFTISSLQPEDIATYYCLGGYDDDAENAFGGGTKVEIKRTVAAPSVFIFPPSDEQLKSGTASVVCLLNNFYPREAKVQWKVDNALQSGNSQESVTEQDSKDSTYSLSSTLTLSKADYEKHKVYACEVTHQGLSSPVTKSFNRGEC
notes: variant of m1 without Fc mutations
Question: Does B3 bind [9]?
Answer: binds

B4: IgG1-CD134-003-HC6LC2-P329R-E345R (antibody)
heavy: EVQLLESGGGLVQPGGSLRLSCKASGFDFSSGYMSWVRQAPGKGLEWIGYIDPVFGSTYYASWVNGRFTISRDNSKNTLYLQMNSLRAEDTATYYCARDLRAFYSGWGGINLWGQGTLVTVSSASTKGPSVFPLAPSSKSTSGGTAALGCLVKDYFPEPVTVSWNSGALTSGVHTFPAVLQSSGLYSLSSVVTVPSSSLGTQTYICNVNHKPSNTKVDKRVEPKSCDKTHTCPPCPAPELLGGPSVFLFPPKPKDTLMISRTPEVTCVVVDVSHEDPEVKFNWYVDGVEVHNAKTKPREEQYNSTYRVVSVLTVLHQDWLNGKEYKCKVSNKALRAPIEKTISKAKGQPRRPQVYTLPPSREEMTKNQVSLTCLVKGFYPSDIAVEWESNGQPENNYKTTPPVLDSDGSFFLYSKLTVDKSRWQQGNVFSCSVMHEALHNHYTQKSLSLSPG
light: B3 light
notes: humanized; human IgG1 with P329R and E345R (Eu); also called IgG1-CD134-003-HC6LC2-RR
Question: With B4 as the binder, how does the Kd [1] read?
Answer: 27 nM

Question: And the koff [1]?
Answer: 0.0029 s⁻¹

Question: What about the kon [1] of the same binder?
Answer: 110000 M⁻¹ s⁻¹

B5: IgG1-CD134-012 (antibody)
heavy: not shown
light: DIVMTQTPASVEAAVGGTVTIKCQASENIYSSLAWYQQKPGQPPKLLIYRTSTLASGVPSRFKGSGSGTQFTLTISDLESDDAATYYCQSYYHNSGGGYDYGFGGGTEVVAKRTVAAPSVFIFPPSDEQLKSGTASVVCLLNNFYPREAKVQWKVDNALQSGNSQESVTEQDSKDSTYSLSSTLTLSKADYEKHKVYACEVTHQGLSSPVTKSFNRGEC
notes: rabbit-human chimeric IgG1
Question: Which results are given for B5?
Answer: Kd [10]: 180 nM; koff [10]: 0.018 s⁻¹; kon [10]: 98000 M⁻¹ s⁻¹

B6: IgG1-CD134-003 (antibody)
heavy: not shown
light: AAVLTQTPSPVSAAVGGTVTIKCQSSQIVVNNNFLSWYQQKPGQPPKLLIYDASNLASGVPDRFSGSGSGTQFTLTISGVQSDDAATYYCLGGYDDDAENAFGGGTEVVVQRTVAAPSVFIFPPSDEQLKSGTASVVCLLNNFYPREAKVQWKVDNALQSGNSQESVTEQDSKDSTYSLSSTLTLSKADYEKHKVYACEVTHQGLSSPVTKSFNRGEC
notes: rabbit-human chimeric, wild-type IgG1 Fc
Question: Which results are given for B6?
Answer: EC50 (read off the curve) [9]: ~0.7 µg/mL; Kd [1]: 3.5 nM; koff [1]: 0.00096 s⁻¹; kon [1]: 280000 M⁻¹ s⁻¹

Reference: patent US20240376221A1 (Genmab, published 2024)
